From the supplement of paper PMC12458215
± gives the uncertainty stated by the source.

Tested on: HEK293T
Experiment: plasma membrane surface immunostaining intensity (anti-HA, deep receptor scanning) (arbitrary fluorescence units); higher = higher plasma membrane expression

| Sequence | plasma membrane surface immunostaining intensity (GPCR class: A) | other results |
| --- | --- | --- |
| MLGPAVLGLSLWALLHPGTGAPLCLSQQLRMKGDYVLGGLFPLGEAEEAGLRSRTRPSSPVCTRFSSNGLLWALAMKMAVEEINNKSDLLPGLRLGYDLFDTCSEPVVAMKPSLMFLAKAGSRDIAAYCNYTQYQPRVLAVIGPHSSELAMVTGKFFSFFLMPQVSYGASMELLSARETFPSFFRTVPSDRVQLTAAAELLQEFGWNWVAALGSDDEYGRQGLSIFSALAAARGICIAHEGLVPLPRADDSRLGKVQDVLHQVNQSSVQVVLLFASVHAAHALFNYSISSRLSPKVWVASEAWLTSDLVMGLPGMAQMGTVLGFLQRGAQLHEFPQYVKTHLALATDPAFCSALGEREQGLEEDVVGQRCPQCDCITLQNVSAGLNHHQTFSVYAAVYSVAQALHNTLQCNASGCPAQDPVKPWQLLENMYNLTFHVGGLPLRFDSSGNVDMEYDLKLWVWQGSVPRLHDVGRFNGSLRTERLKIRWHTSDNQKPVSRCSRQCQEGQVRRVKGFHSCCYDCVDCEAGSYRQNPDDIACTFCGQDEWSPERSTRCFRRRSRFLAWGEPAVLLLLLLLSLALGLVLAALGLFVHHRDSPLVQASGGPLACFGLVCLGLVCLSVLLFPGQPSPARCLAQQPLSHLPLTGCLSTLFLQAAEIFVESELPLSWADRLSGCLRGPWAWLVVLLAMLVEVALCTWYLVAFPPEVVTDWHMLPTEALVHCRTRSWVSFGLAHATNATLAFLCFLGTFLVRSQPGCYNRARGLTFAMLAYFITWVSFVPLLANVQVVLRPAVQMGALLLCVLGILAAFHLPRCYLLMRQPGLNTPEFFLGGGPGDAQGQNDGNTGNQGKHE [TAS1R3] |  | plasma membrane surface immunostaining intensity (GPCR class: Taste): 122 ± 9.1 |
| MKIANNTVVTEFILLGLTQSQDIQLLVFVLILIFYLIILPGNFLIIFTIRSDPGLTAPLYLFLGNLAFLDASYSFIVAPRMLVDFLSEKKVISYRGCITQLFFLHFLGGGEGLLLVVMAFDRYIAICRPLHCSTVMNPRACYAMMLALWLGGFVHSIIQVVLILRLPFCGPNQLDNFFCDVRQVIKLACTDMFVVELLMVFNSGLMTLLCFLGLLASYAVILCHVRRAASEGKNKAMSTCTTRVIIILLMFGPAIFIYICPFRALPADKMVSLFHTVIFPLMNPMIYTLRNQEVKTSMKRLLSRHVVCQVDFIIRN [OR4N4C] |  | plasma membrane surface immunostaining intensity (GPCR class: A (Olfactory)): 323 ± 130 |
| MASPRSSGQPGPPPPPPPPPARLLLLLLLPLLLPLAPGAWGWARGAPRPPPSSPPLSIMGLMPLTKEVAKGSIGRGVLPAVELAIEQIRNESLLRPYFLDLRLYDTECDNAKGLKAFYDAIKYGPNHLMVFGGVCPSVTSIIAESLQGWNLVQLSFAATTPVLADKKKYPYFFRTVPSDNAVNPAILKLLKHYQWKRVGTLTQDVQRFSEVRNDLTGVLYGEDIEISDTESFSNDPCTSVKKLKGNDVRIILGQFDQNMAAKVFCCAYEENMYGSKYQWIIPGWYEPSWWEQVHTEANSSRCLRKNLLAAMEGYIGVDFEPLSSKQIKTISGKTPQQYEREYNNKRSGVGPSKFHGYAYDGIWVIAKTLQRAMETLHASSRHQRIQDFNYTDHTLGRIILNAMNETNFFGVTGQVVFRNGERMGTIKFTQFQDSREVKVGEYNAVADTLEIINDTIRFQGSEPPKDKTIILEQLRKISLPLYSILSALTILGMIMASAFLFFNIKNRNQKLIKMSSPYMNNLIILGGMLSYASIFLFGLDGSFVSEKTFETLCTVRTWILTVGYTTAFGAMFAKTWRVHAIFKNVKMKKKIIKDQKLLVIVGGMLLIDLCILICWQAVDPLRRTVEKYSMEPDPAGRDISIRPLLEHCENTHMTIWLGIVYAYKGLLMLFGCFLAWETRNVSIPALNDSKYIGMSVYNVGIMCIIGAAVSFLTRDQPNVQFCIVALVIIFCSTITLCLVFVPKLITLRTNPDAATQNRRFQFTQNQKKEDSKTSTSVTSVNQASTSRLEGLQSENHRLRMKITELDKDLEEVTMQLQDTPEKTTYIKQNHYQELNDILNLGNFTESTDGGKAILKNHLDQNPQLQWNTTEPSRTCKDPIEDINSPEHIQRRLSLQLPILHHAYLPSIGGVDASCVSPCVSPTASPRHRHVPPSFRVMVSGL [GABBR2] |  | plasma membrane surface immunostaining intensity (GPCR class: C): 6210 ± 48 |
| MSIMMLPMEQKIQWVPTSLQDITAVLGTEAYTEEDKSMVSHAQKSQHSCLSHSRWLRSPQVTGGSWDLRIRPSKDSSSFRQAQCLRKDPGANNHLESQGVRGTAGDADRELRGPSEKATAGQPRVTLLPTPHVSGLSQEFESHWPEIAERSPCVAGVIPVIYYSVLLGLGLPVSLLTAVALARLATRTRRPSYYYLLALTASDIIIQVVIVFAGFLLQGAVLARQVPQAVVRTANILEFAANHASVWIAILLTVDRYTALCHPLHHRAASSPGRTRRAIAAVLSAALLTGIPFYWWLDMWRDTDSPRTLDEVLKWAHCLTVYFIPCGVFLVTNSAIIHRLRRRGRSGLQPRVGKSTAILLGITTLFTLLWAPRVFVMLYHMYVAPVHRDWRVHLALDVANMVAMLHTAANFGLYCFVSKTFRATVRQVIHDAYLPCTLASQPEGMAAKPVMEPPGLPTGAEV [GPR142] | 165 ± 58 |  |
| MLAAAFADSNSSSMNVSFAHLHFAGGYLPSDSQDWRTIIPALLVAVCLVGFVGNLCVIGILLHNAWKGKPSMIHSLILNLSLADLSLLLFSAPIRATAYSKSVWDLGWFVCKSSDWFIHTCMAAKSLTIVVVAKVCFMYASDPAKQVSIHNYTIWSVLVAIWTVASLLPLPEWFFSTIRHHEGVEMCLVDVPAVAEEFMSMFGKLYPLLAFGLPLFFASFYFWRAYDQCKKRGTKTQNLRNQIRSKQVTVMLLSIAIISALLWLPEWVAWLWVWHLKAAGPAPPQGFIALSQVLMFSISSANPLIFLVMSEEFREGLKGVWKWMITKKPPTVSESQETPAGNSEGLPDKVPSPESPASIPEKEKPSSPSSGKGKTEKAEIPILPDVEQFWHERDTVPSVQDNDPIPWEHEDQETGEGVK [GPR151] | 5990 ± 230 |  |
| MEGISIYTSDNYTEEMGSGDYDSMKEPCFREENANFNKIFLPTIYSIIFLTGIVGNGLVILVMGYQKKLRSMTDKYRLHLSVADLLFVITLPFWAVDAVANWYFGNFLCKAVHVIYTVNLYSSVLILAFISLDRYLAIVHATNSQRPRKLLAEKVVYVGVWIPALLLTIPDFIFANVSEADDRYICDRFYPNDLWVVVFQFQHIMVGLILPGIVILSCYCIIISKLSHSKGHQKRKALKTTVILILAFFACWLPYYIGISIDSFILLEIIKQGCEFENTVHKWISITEALAFFHCCLNPILYAFLGAKFKTSAQHALTSVSRGSSLKILSKGKRGGHSSVSTESESSSFHSS [CXCR4] | 814 ± 140 |  |
| MLRNGSIVTEFILVGFQQSSTSTRALLFALFLALYSLTMAMNGLIIFITSWTDPKLNSPMYFFLGHLSLLDVCFITTTIPQMLIHLVVRDHIVSFVCCMTQMYFVFCVGVAECILLAFMAYDRYVAICYPLNYVPIISQKVCVRLVGTAWFFGLINGIFLEYISFREPFRRDNHIESFFCEAPIVIGLSCGDPQFSLWAIFADAIVVILSPMVLTVTSYVHILATILSKASSSGRGKTFSTCASHLTVVIFLYTSAMFSYMNPHSTHGPDKDKPFSLLYTIITPMCNPIIYSFRNKEIKEAMVRALGRTRLAQPQSV [OR10AD1] |  | plasma membrane surface immunostaining intensity (GPCR class: A (Olfactory)): 326 ± 140 |
| MVNLRNAVHSFLVHLIGLLVWQSDISVSPVAAIVTDIFNTSDGGRFKFPDGVQNWPALSIVIIIIMTIGGNILVIMAVSMEKKLHNATNYFLMSLAIADMLVGLLVMPLSLLAILYDYVWPLPRYLCPVWISLDVLFSTASIMHLCAISLDRYVAIRNPIEHSRFNSRTKAIMKIAIVWAISIGVSVPIPVIGLRDEEKVFVNNTTCVLNDPNFVLIGSFVAFFIPLTIMVITYCLTIYVLRRQALMLLHGHTEEPPGLSLDFLKCCKRNTAEEENSANPNQDQNARRRKKKERRPRGTMQAINNERKASKVLGIVFFVFLIMWCPFFITNILSVLCEKSCNQKLMEKLLNVFVWIGYVCSGINPLVYTLFNKIYRRAFSNYLRCNYKVEKKPPVRQIPRVAATALSGRELNVNIYRHTNEPVIEKASDNEPGIEMQVENLELPVNPSSVVSERISSV [HTR2C] | 974 ± 180 |  |
| MDTSRLGVLLSLPVLLQLATGGSSPRSGVLLRGCPTHCHCEPDGRMLLRVDCSDLGLSELPSNLSVFTSYLDLSMNNISQLLPNPLPSLRFLEELRLAGNALTYIPKGAFTGLYSLKVLMLQNNQLRHVPTEALQNLRSLQSLRLDANHISYVPPSCFSGLHSLRHLWLDDNALTEIPVQAFRSLSALQAMTLALNKIHHIPDYAFGNLSSLVVLHLHNNRIHSLGKKCFDGLHSLETLDLNYNNLDEFPTAIRTLSNLKELGFHSNNIRSIPEKAFVGNPSLITIHFYDNPIQFVGRSAFQHLPELRTLTLNGASQITEFPDLTGTANLESLTLTGAQISSLPQTVCNQLPNLQVLDLSYNLLEDLPSFSVCQKLQKIDLRHNEIYEIKVDTFQQLLSLRSLNLAWNKIAIIHPNAFSTLPSLIKLDLSSNLLSSFPITGLHGLTHLKLTGNHALQSLISSENFPELKVIEMPYAYQCCAFGVCENAYKISNQWNKGDNSSMDDLHKKDAGMFQAQDERDLEDFLLDFEEDLKALHSVQCSPSPGPFKPCEHLLDGWLIRIGVWTIAVLALTCNALVTSTVFRSPLYISPIKLLIGVIAAVNMLTGVSSAVLAGVDAFTFGSFARHGAWWENGVGCHVIGFLSIFASESSVFLLTLAALERGFSVKYSAKFETKAPFSSLKVIILLCALLALTMAAVPLLGGSKYGASPLCLPLPFGEPSTMGYMVALILLNSLCFLMMTIAYTKLYCNLDKGDLENIWDCSMVKHIALLLFTNCILNCPVAFLSFSSLINLTFISPEVIKFILLVVVPLPACLNPLLYILFNPHFKEDLVSLRKQTYVWTRSKHPSLMSINSDDVEKQSCDSTQALVTFTSSSITYDLPPSSVPSPAYPVTESCHLSSVAFVPCL [LGR5] | 283 ± 25 |  |
| MDPLNLSWYDDDLERQNWSRPFNGSDGKADRPHYNYYATLLTLLIAVIVFGNVLVCMAVSREKALQTTTNYLIVSLAVADLLVATLVMPWVVYLEVVGEWKFSRIHCDIFVTLDVMMCTASILNLCAISIDRYTAVAMPMLYNTRYSSKRRVTVMISIVWVLSFTISCPLLFGLNNADQNECIIANPAFVVYSSIVSFYVPFIVTLLVYIKIYIVLRRRRKRVNTKRSSRAFRAHLRAPLKGNCTHPEDMKLCTVIMKSNGSFPVNRRRVEAARRAQELEMEMLSSTSPPERTRYSPIPPSHHQLTLPDPSHHGLHSTPDSPAKPEKNGHAKDHPKIAKIFEIQTMPNGKTRTSLKTMSRRKLSQQKEKKATQMLAIVLGVFIICWLPFFITHILNIHCDCNIPPVLYSAFTWLGYVNSAVNPIIYTTFNIEFRKAFLKILHC [DRD2] | 1950 ± 620 |  |
| MGPRAKTISSLFFLLWVLAEPAENSDFYLPGDYLLGGLFSLHANMKGIVHLNFLQVPMCKEYEVKVIGYNLMQAMRFAVEEINNDSSLLPGVLLGYEIVDVCYISNNVQPVLYFLAHEDNLLPIQEDYSNYISRVVAVIGPDNSESVMTVANFLSLFLLPQITYSAISDELRDKVRFPALLRTTPSADHHIEAMVQLMLHFRWNWIIVLVSSDTYGRDNGQLLGERVARRDICIAFQETLPTLQPNQNMTSEERQRLVTIVDKLQQSTARVVVVFSPDLTLYHFFNEVLRQNFTGAVWIASESWAIDPVLHNLTELRHLGTFLGITIQSVPIPGFSEFREWGPQAGPPPLSRTSQSYTCNQECDNCLNATLSFNTILRLSGERVVYSVYSAVYAVAHALHSLLGCDKSTCTKRVVYPWQLLEEIWKVNFTLLDHQIFFDPQGDVALHLEIVQWQWDRSQNPFQSVASYYPLQRQLKNIQDISWHTINNTIPMSMCSKRCQSGQKKKPVGIHVCCFECIDCLPGTFLNHTEDEYECQACPNNEWSYQSETSCFKRQLVFLEWHEAPTIAVALLAALGFLSTLAILVIFWRHFQTPIVRSAGGPMCFLMLTLLLVAYMVVPVYVGPPKVSTCLCRQALFPLCFTICISCIAVRSFQIVCAFKMASRFPRAYSYWVRYQGPYVSMAFITVLKMVIVVIGMLATGLSPTTRTDPDDPKITIVSCNPNYRNSLLFNTSLDLLLSVVGFSFAYMGKELPTNYNEAKFITLSMTFYFTSSVSLCTFMSAYSGVLVTIVDLLVTVLNLLAISLGYFGPKCYMILFYPERNTPAYFNSMIQGYTMRRD [TAS1R2] |  | plasma membrane surface immunostaining intensity (GPCR class: Taste): 229 ± 23 |
